Measured values reported in US7250505.
One block for each substance: values may come before it.

Legend:
[1] = target: GST-mDab1 PTB domain fusion protein (mouse); assay: fluorescence polarization competition against the fluorescein-labeled APP peptide, 1.1 µM PTB domain
[2] = target: APP synthetic peptide containing the NPXY region (non-phosphorylated) (Mus musculus (Mouse)) (UniProt P12023); assay: fluorescence polarization
[3] = target: APP peptide with arginine in place of Pro-2; assay: substitution scan on a cellulose peptide array, radiolabeled GST-PTB
[4] = target: APP peptide with isoleucine in place of Pro-2; assay: as above
[5] = target: APP peptide with lysine in place of Pro-2; assay: as above
[6] = target: fluorescein-labeled APP peptide (Mus musculus (Mouse)) (UniProt P12023); assay: fluorescence polarization, about 1 nM fluorescein-labeled APP peptide titrated with GST-PTB
[7] = target: GST-mDab1 PTB domain fusion protein (mouse); assay: fluorescence polarization competition
activated Src (Src527F) = activated Src (Src527F) (UniProt P00523); assay: co-immunoprecipitation with anti-Src from Rat-1 fibroblasts overexpressing both, immunoblot

competitor concentration of equal effect [1]: 2 µM
Substance: APP synthetic peptide containing the NPXY region (non-phosphorylated) (from UniProt P12023 754-770)

Kd [2]: 500 nM | percent binding against the wild-type APP peptide [3]: 40% | percent binding against the wild-type APP peptide [4]: 40% | percent binding against the wild-type APP peptide [5]: 40% | Kd [6]: 550 nM
Substance: GST-mDab1 PTB domain fusion protein (from UniProt O75553 29-197)

fold reduction of affinity against the non-phosphorylated APP peptide [7]: 250 fold | competitor concentration of equal effect [1]: 500 µM
Substance: phosphorylated APP peptide (from UniProt P12023 754-770)

percent of the phosphorylated mDab1 of the total cell lysate immunoprecipitated with Src (activated Src (Src527F)): 1%
Substance: mDab1 p80 (mDab555 product), tyrosine phosphorylated (from UniProt P97318 1-588)
